Assay results reported in the supplement of paper PMC10567573.

B1: FAM164A (parent)
chain: YDPDYIQCPYCQRRFNENAADRHI
B2: CHMP4C (parent)
chain: TNIRLPNVPSSSLPAQPNRKPGMS

Variants of: B1
Assay: protein stability index of a GFP-peptide fusion (GPS, HEK-293T) (PSI 1-6); higher = more stable
Details: c terminus: a fixed tail appended
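Further: lentivirally expressed fusions sorted by FACS into six bins by GFP to DsRed ratio, PSI derived from sequencing read proportions per bin multiplied by bin number.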

Protein stability index of substitutions, site by site:
A20: Q 3.82, W 3.52, L 4.25, Y 3.78, V 4.36, S 4, G 3.85
N18: T 4.11, H 4.37, C 4.15, F 3.22, W 3.4, L 3.93, E 4.26
R13: G 4.23, H 3.51, Q 3.75, L 2.64, A 3.76, Y 2.7, F 3.18, T 2.41
A19: S 4.59, F 4.24, K 4, R 4.11, G 4.41, W 3.66, M 3.88
N16: I 4.75, G 3.71, H 3.8, Y 4.94, P 5.53, C 4.37, E 3.97, R 5.19, F 4.49, K 4.8, A 4.63
R22: W 3.15, E 4.47, S 4.03, N 4.29, Y 3.81, D 4.57, P 4.29, V 4.17
Y10: S 3.9, I 3.15, W 3.89, A 4.5, M 3.53, C 3.23, E 3.26, N 3.91, R 2.99, G 3.32, V 3.49
Y5: N 4.11, V 4.41, D 4.24, P 3.84, F 4.07, S 4.37, E 4.57
D4: C 3.48, M 3.8, N 4.22, Y 3.59, P 4.08, T 4.08, S 4.49, R 3.53, K 4.11, H 4.5, I 4.5, Q 4.42, W 3.5
I24: F 3.88, L 3.88, M 4.03, K 4.29, R 3.9
Y1: H 4.29, Q 4.55, K 4.41, M 4.24, W 4.69, P 4.54, V 4.4, N 4.45
I6: T 3.56, P 3.37, D 3.6, N 3.55, W 2.8, R 3.63, M 3.42, Q 4.03, H 3.71
D2: A 2.46, E 4.93, F 3.52, N 4.26, G 3.96, P 3.64, C 2.33, R 4.07, Q 3.55
P9: Y 2.07, M 2.39, L 2.09, F 2.18, Q 3.14, N 2.75, I 2.29, C 2.59
Q12: D 3.26, A 4.08, G 4.74, P 2.64, L 4.9
C8: R 3.12, H 3.46, T 4.23, Q 3.7, I 3.13, K 3.54, D 4.24, W 2.96, V 3.81, N 3.65, F 3.17
P3: Y 4.24, S 4.39, R 4.49, D 4.01, W 3.5, V 4.25, M 4.4
C11: Q 3.47, M 3.65, E 4.23, H 3.69, G 3.75, K 3.57, P 3.65, D 3.81, T 3.72
D21: T 4.21, Q 4.71, P 3.92, S 4.57, Y 4.03, E 4.42
F15: I 4.21, G 2.83, E 3.59, D 3.17, N 3.18
H23: V 4.25, P 3.86, Y 3.83, N 4.15, E 5.08, L 3.9, Q 4.22
E17: R 4.89, W 4.77, Q 4.94, P 5.37, G 4.5, D 4.37, M 5.01, V 5.04
Q7: T 4.57, Y 3.77, C 3.57, L 3.48, S 3.27, I 4.76, F 3.15, V 4.7
R14: T 4.45, S 4.11, N 2.68, Y 4.52, F 5.24, P 3.9, G 2.81, E 3.88, W 5.12

Variants of: B2
Assay: as above
Details: c terminus: a fixed tail appended

Protein stability index of substitutions, site by site:
N7: T 4.95, Y 4.13, S 4.89, M 4.82, R 4.41, A 4.61, P 5.37, V 4.45, K 4.52, C 4.56, W 4.11, G 4.76, F 3.38, L 4.67, E 4.26, H 4.62, D 4.49, I 3.95, Q 4.1
N2: W 3.01, T 4.59, I 3.44, A 4.67, D 4.77, V 4.16, P 5.25, L 3.44, K 4.24, M 4.66, S 4.7, E 5.05, H 4.51, Q 4.27, Y 3.51, F 3.43, G 4.24, C 3.87, R 4.08
T1: L 3.24, D 4.71, G 4.8, S 4.4, V 3.62, E 3.75, K 4.55, C 4.14, Y 3.71, N 4.82, W 3.62, Q 4.75, P 4.8, R 4.77, F 3.6, A 4.63, I 3.03, M 4.17, H 4.56
V8: A 4.51, H 4.77, F 4.29, E 5.14, I 4.76, D 4.54, G 4.47, C 3.99
I3: G 4.72, W 4.13, S 4.71, M 4.76, E 4.92, Y 4.33, R 4.41, N 4.81, H 4.62, C 4.55, P 4.77, D 4.63, Q 4.87, V 4.54, F 4.2, T 4.82, L 4.26, A 4.73, K 3.99
L5: N 4.68, G 5.1, D 5.05, Q 4.69, T 4.74, R 4.42, M 4.76, E 4.46, A 4.71, P 4.88, I 4.61, K 4.71, H 4.62, F 4.38, Y 4.58, W 4.31, V 4.7, S 4.18, C 4.92
P6: Y 2.66, A 3.96, I 2.71, F 3.28, V 3.1, H 3.02, R 4.04, S 4.44, E 4.48, N 4.18, Q 3.19, L 2.99, G 4.26, T 3.75, D 4.36, C 3.56, W 3.34, K 4.23, M 3.36
R4: E 4.68, M 4.51, I 3.37, K 3.88, P 4.73, F 4.18, Q 4.19, W 2.96, T 4.61, V 4.35, H 4.06, N 2.96, D 4.34, S 4.29, A 4.79, Y 4.24, G 4.69, L 4.26, C 4.77
